Source: paper PMC12568027

Target: HIV-2 GL-AN CA P14C/E45C/W184A/M185A (HIV-2 GL-AN)

“HIV-2 GL-AN CA P14C/E45C/W184A/M185A (natural protein)” gave a stoichiometry N of 6.
